Results taken from publication PMC4122339, “Carbonic Anhydrase Generates CO2 and H^+ That Drive Spider Silk Formation Via Opposite Effects on the Terminal Domains” (PLoS Biology, 2014).

Molecular target: the molecule itself
Assay: NMR structure; solution NMR at 298 K; 1 mM protein in 20 mM sodium phosphate pH 6.8, 20 mM NaCl; intermolecular NOEs from a 13C/15N-filtered NOESY on a 50% labelled / 50% unlabelled sample, used as distance restraints with an upper limit of 5 Å

B1: Araneus ventricosus minor ampullate spidroin (MiSp) C-terminal domain, truncated construct (residues 31-150 of the 150-residue C-terminal part) (domain or fragment)
chain: VTSGGYGYGTSAAAGAGVAAGSYAGAVNRLSSAEAASRVSSNIAAIASGGASALPSVISNIYSGVVASGVSSNEALIQALLELLSALVHVLSSASIGNVSSVGVDSTLNVVQDSVGQYVG
modifications: uniformly 13C/15N-labelled (a mixed sample of 50% 13C/15N-labelled and 50% unlabelled protein was used for the intermolecular NOEs)
notes: C-terminal domain of minor ampullate spidroin (MiSp), Araneus ventricosus; residues 31-150 of the printed 150-residue construct; PDB 2MFZ would settle this; also called A. ventricosus MiSp CT; source: E. coli BL21 (DE3), minimal medium, purified (Ni-NTA, thrombin cleavage, Ni-NTA); not shown: His tag-Thioredoxin-His tag, N-terminal, cleaved
- binding result: binds
